Columns and labels:
[1] = Peptide content (assay) of lyophilized drug product by UPLC-UV at 220 nm, method according to the invention (USP reserpine reference standard, RRF); format: physicochemical; conditions: DP-7P batch, method according to the invention (USP RS)
Excerpt: The UPLC method similar to Example 1 was used for the quantification of analytes (i.e. the individual peptides) in mixtures DP-5P (SEQ ID NO: 1-5) and DP-7P (SEQ ID NO: 6-12) and for the determination of content uniformity of mixtures DP-5P and DP-7P (lyophilized product). The method is based on the use of an external reference standard. The relative response factor (ratio of molar extinction coefficients, RRF) against this external reference standard has been established for each peptide. The purity, individual related substances, and the assay of DP-5P and DP-7P were determined by reversed phase rapid HPLC (UPLC) using a mobile phase gradient of ACN/IPA and water and UV detection at λ220 nm.
The following lyophilized peptide compositions were used: DP-5P comprising peptides represented herein by SEQ ID NO: 1-5 admixed at equal net weights of 0.40 mg of each peptide per vial (total amount of protein per vial being 2.00 mg) and 0.56 mg TFA per vial; and DP-7P comprising peptides represented herein by SEQ ID NO: 6-12 admixed at equal net weights of 0.40 mg of each peptide per vial (total amount of protein per vial being 2.80 mg) and 0.96 mg TFA per vial. The following chemicals were used: Acetonitrile, (Biosolve, 01204102); UPLC water, (Type 1, milli-Q); trifluoroacetic acid, (Chem Lab, CLoo.2094.0001), 2-propanol, (UPLC/MS grade, Biosolve, 16264102); Reserpine, (USP, Sigma Aldrich, 1601000). The following equipment was used: QuanRecovery vials, (Waters, 186009186); UPLC pump equipped with a gradient system, autosampler, and UV detection (Waters Acquity or equivalent) and mixer volume 425 μL.
• Mobile phase A: 0.1% (v/v) TFA in water • Mobile phase B: 0.1% (v/v) TFA in 70/30 ACN/IPA • Diluent A: 0.05% (v/v) TFA in water • Diluent B: 0.05% (v/v) TFA in ACN • Blank solution: 80/20 (v/v) diluent A/diluent B • Purge solvent: 80/20 (v/v) water/ACN • Needle wash: 0.05% (v/v) TFA in 80/20 (v/v) water/ACN
5.00 mg Reserpine reference material was accurately weighed and added into a 50 mL volumetric flask. 40.0 mL of blank solution was added, by means of a volumetric pipette. The solution was stirred for 10 min, by means of a magnetic stirrer, until fully dissolved. The solution was diluted to volume with blank solution and mixed well.
Transfer of 2.0 mL, by means of a volumetric pipette, of stock reference solution 1 into a 20 mL volumetric flask. Diluted to volume with blank solution and homogenized.
This sample preparation was setup for lyophilized products DP-5P and DP-7P in an initially sealed container. Before opening and dissolving the drug product, the vials were equilibrated at room temperature for at least 1 hour. The content of the vial was dissolved with 0.8 mL of diluent B, and stirred for 20 min, using a magnetic stirrer. 3.2 mL of diluent A were added. The solution was stirred well for 20 min, using a magnetic stirrer. After dissolving the content of the vial, the sample vial was kept on the lab bench for 30 minutes. The solution was stirred briefly and transferred into an HPLC vial.
• Column: Advance Bio Peptide Map (2.7 μm, 250 x 2.1 mm) • Sample matrix 0.05%v/v TFA in ACN : water (1:4 v/v) • Sample concentration 100 μg/mL net peptide (of each drug substance), duplicate • Injection volume: 10 μL • Column temperature: 40° C. • Sample temperature: 5° C. • Detection: UV (λ=220 nm) • Flow rate: 0.2 mL/min • Run time: 65 min • Purge solvent: 80/20 (v/v) water/ACN • Needle wash: 0.05% (v/v) TFA in 80/20 water/ACN (v/v) (20 s) • Seal wash: 90/10 (v/v) water/MeOH • Elution mode: Gradient elution • Eluent A: 0.1%v/v TFA in water • Eluent B: 0.1%v/v TFA in ACN/IPA (70:30 v/v)
The RRF was determined for all 12 peptides, enabling the quantification of each peptide against a reserpine as shown above. For the determination, the absorbance of each peptide in a solution comprising said peptide at a known concentration, and of a reference standard solution comprising reserpine at a known concentration, were measured at 220 nm. […]

[2] = Peptide content (assay) of lyophilized drug product by UPLC-UV at 220 nm, conventional method (peptide as reference standard); format: physicochemical; conditions: DP-7P batch, conventional method (peptide as RS)
Description: The purity including individual related substances and the assay of a DP-5P (5 peptides, SEQ ID NOs: 1-5) and DP-7P (7 peptides, SEQ ID NOs: 6-12) mixture were determined by reversed phase rapid HPLC (UPLC) using a mobile phase gradient of acetonitrile and water and UV detection at λ=220 nm.
• Column: RP C18, e.g. Waters Acquity, BEH 130 PST (1.7 μm, 150×2.1 mm) • Sample matrix Eluent A : Eluent B=85:15 (v/v). • Sample concentration 100 μg/mL net peptide (of each drug substance mixture), duplicate • Injection volume: 5 μL • Column temperature: 65° C. • Sample temperature: 5° C. • Detection: UV (λ=220 nm) • Flow rate: 0.3 mL/min • Eluent A: 0.05%v/v TFA and 1%v/v Acetonitrile (ACN) in water • Eluent B: 0.05%v/v TFA in ACN
The relative retention times (RRTs) assigned to peptides and related substances both in a DP-5P (SEQ ID NO: 1-5) and DP-7P (SEQ ID NO: 6-12) mixture was calculated with reference to the retention time of the peptide eluting in the middle (FIG. 1 and FIG. 2). That retention time was used as reference as the main peak of this drug substance was detected approx. in the center of the chromatogram. The related substances were determined by area normalization. The individual related substances were reported≥0.10%a/a. The total related substances were calculated as the sum of all individual related substances equal to or greater than a disregard limit of 0.0500%a/a. The purity was calculated as the difference between total related substances and 100%.
The assay of each of the peptides was calculated against a reference standard solution containing either five peptides (DP-5P) or seven peptides (DP-7P) and was expressed in percent and in mg net peptide/vial. For this reference method, the absorption ratio between the reference substance and the analyte is 1, because the reference substance is the analyte itself.
At T=0 months (TOM) the peptide content was measured using the conventional method of Example 2. From T=48 months (T48M) onwards the peptide content was measured with the conventional method of Example 2 and the method according to the invention of Example 3.

| Sequence | Assay (mg/vial) ([1]; T48M) | Label claim (% target 0.40 mg/vial) ([1]; T48M) [%] | Assay (mg/vial) ([1]; T54M) | Label claim (% target 0.40 mg/vial) ([1]; T54M) [%] | Assay (mg/vial) ([1]; T60M) | Label claim (% target 0.40 mg/vial) ([1]; T60M) [%] | Assay (mg/vial) ([2]; T0M) | Label claim (% target 0.40 mg/vial) ([2]; T0M) [%] | Assay (mg/vial) ([2]; T48M) | Label claim (% target 0.40 mg/vial) ([2]; T48M) [%] | Assay (mg/vial) ([2]; T54M) | Label claim (% target 0.40 mg/vial) ([2]; T54M) [%] | Assay (mg/vial) ([2]; T60M) | Label claim (% target 0.40 mg/vial) ([2]; T60M) [%] |
| --- | --- | --- | --- | --- | --- | --- | --- | --- | --- | --- | --- | --- | --- | --- |
| DKKQRFHNIRGRWTGRCMSCCRSSRTRRETQL (Peptide 6) | 0.4100 | 103 | 0.4033 | 101 | 0.4010 | 100 | 0.4315 | 108 | 0.4390 | 110 | 0.4280 | 107 | 0.4286 | 107 |
| RDLCIVYRDGNPYAVCDKCLKFYSKI (Peptide 11) | 0.3866 | 97 | 0.3815 | 95 | 0.3788 | 95 | 0.4235 | 106 | 0.4293 | 107 | 0.4192 | 105 | 0.4209 | 105 |
| KQQLLRREVYDFAFRDLCIVYRDGN (Peptide 8) | 0.3980 | 99 | 0.3928 | 98 | 0.3900 | 98 | 0.4357 | 109 | 0.4323 | 108 | 0.4289 | 107 | 0.4294 | 107 |
| MHQKRTAMFQ QERPRKLPQLCTELQTTIHD (MHQKRTAMFQQERPRKLPQLCTELQTTIHD; Peptide 10) | 0.4060 | 101 | 0.3966 | 99 | 0.3945 | 99 | 0.4212 | 105 | 0.4329 | 108 | 0.4271 | 107 | 0.4362 | 109 |

Reference: patent publication US20230296569A1, “Substance quantification in complex mixtures” (ISA Pharmaceuticals B.V., priority 2021, published 2023)
